Patent US20140315817A1

Biological target: FLAG-tagged, single-chain human FcRn (human) (UniProt P61769)
Experiment: ELISA at pH 5.5, HSA variant coated, FLAG-tagged single-chain FcRn titrated; column '~Kd at pH 5.5', rank 13; the sheet gives the mutation of HSA-18 as V424I

Sequence of FLAG-tagged, single-chain human FcRn (human) (P61769 other isoform, or with tags, fused parts or gaps limits assumed): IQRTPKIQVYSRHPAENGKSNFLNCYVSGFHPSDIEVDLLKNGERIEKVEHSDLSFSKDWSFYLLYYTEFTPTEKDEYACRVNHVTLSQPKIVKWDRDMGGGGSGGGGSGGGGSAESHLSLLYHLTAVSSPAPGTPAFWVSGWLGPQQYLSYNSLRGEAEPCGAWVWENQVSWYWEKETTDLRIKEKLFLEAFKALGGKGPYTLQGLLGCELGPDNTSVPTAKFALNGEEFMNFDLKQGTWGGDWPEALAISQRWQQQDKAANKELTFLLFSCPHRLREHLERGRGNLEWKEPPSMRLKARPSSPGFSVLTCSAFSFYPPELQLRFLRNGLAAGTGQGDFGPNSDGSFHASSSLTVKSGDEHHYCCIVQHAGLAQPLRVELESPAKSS

hsa-18: full length HSA V241I (from UniProt P02768 25-609)
Kd: > 100 nM
